In paper PMC5910394, “Mechanically interlocked functionalization of monoclonal antibodies” (Nature Communications, 2018):
Positions of bridges follow the written chain, without caps; N, C: chain ends. Non-standard residues stand in square brackets, D forms with d. Groups on a side chain read outwards from the residue. No end group written: not given here. *: point of attachment. Dip = N[C@H](C(=O)O)C(c1ccccc1)c1ccccc1; azide = [N-]=[N+]=N*

B1: 5-diphenylalanine-8-Arg-(PEG)2-azidomeditope (peptide)
peptide: Ac-CQFD[Dip]STR([(PEG)2-azide])RLRCGGSK
modifications: disulfide 1-12 (inferred); also: arginine-(PEG)2-azide at position 8 by name (footnote: 9th place)

Assays:
[1] = target: anti-HER2 memAb (trastuzumab-based, meditope-enabled anti-HER2 antibody); assay: SPR; memAb variant amine-coupled to a CM5 chip, peptide flowed over at 30 uL/min, HBS-EP+, 25 °C, Biacore T100, 1:1 binding model
[2] = target: anti-HER2 memAb (trastuzumab-based, meditope-enabled anti-HER2 antibody); assay: SPR; memAb variant amine-coupled to a CM5 chip, peptide flowed over at 30 uL/min, HBS-EP+, 37 °C, Biacore T100, 1:1 binding model
Ile83Glu anti-HER2 memAb [3] = assay: SPR; memAb variant amine-coupled to a CM5 chip, peptide flowed over, HBS-EP+; temperature not told for this result (25 °C or 37 °C)
[4] = target: Ile83Glu memAb anti-HER2 IgG; assay: SPR; Ile83Glu memAb anti-HER2 amine-coupled on a CM5 chip, meditope flowed over at 30 uL/min, HBS-EP+, 37 °C, 1:1 model, global fit, n=4, standard deviation
[5] = target: memAb anti-HER2 (meditope-enabled, trastuzumab-based anti-HER2 antibody); assay: SPR; memAb anti-HER2 amine-coupled on a CM5 chip, meditope flowed over at 30 uL/min, HBS-EP+, 25 °C, 1:1 model, global fit, n=1 (authors estimate the error at 10-50%)
[6] = target: memAb anti-HER2 (meditope-enabled, trastuzumab-based anti-HER2 antibody); assay: SPR; memAb anti-HER2 amine-coupled on a CM5 chip, meditope flowed over at 30 uL/min, HBS-EP+, 37 °C, 1:1 model, global fit, n=1 (authors estimate the error at 10-50%)
[7] = target: Ile83Glu memAb anti-HER2 IgG; assay: SPR; Ile83Glu memAb anti-HER2 amine-coupled on a CM5 chip, meditope flowed over at 30 uL/min, HBS-EP+, 25 °C, 1:1 model, global fit, n=1 (authors estimate the error at 10-50%)
[8] = target: Ile83Glu memAb anti-HER2 IgG; assay: SPR; Ile83Glu memAb anti-HER2 IgG immobilized on the sensor chip, 37 °C, n=1, analyte as a two-fold dilution series from 500 pM to 39 pM, 1:1 interaction model
Ile83Glu anti-HER2 memAb [9] = assay: SPR; memAb variant amine-coupled to a CM5 chip, peptide flowed over at 30 uL/min, HBS-EP+, 25 °C, Biacore T100, 1:1 binding model
Ile83Glu anti-HER2 memAb [10] = assay: SPR; memAb variant amine-coupled to a CM5 chip, peptide flowed over at 30 uL/min, HBS-EP+, 37 °C, Biacore T100, 1:1 binding model

Sequence of memAb anti-HER2 (meditope-enabled, trastuzumab-based anti-HER2 antibody) (heavy, as listed by the source, chain 1 of 2): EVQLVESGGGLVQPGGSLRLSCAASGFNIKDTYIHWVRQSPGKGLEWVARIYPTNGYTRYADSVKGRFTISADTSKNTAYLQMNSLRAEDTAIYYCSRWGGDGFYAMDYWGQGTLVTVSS
Sequence of memAb anti-HER2 (meditope-enabled, trastuzumab-based anti-HER2 antibody) (light, as listed by the source, chain 2 of 2): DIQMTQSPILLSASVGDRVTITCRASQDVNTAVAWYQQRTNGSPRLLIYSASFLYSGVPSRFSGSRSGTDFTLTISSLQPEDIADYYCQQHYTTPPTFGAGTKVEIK
Sequence of Ile83Glu memAb anti-HER2 IgG (heavy, as listed by the source, chain 1 of 2): as the sequence (heavy, as listed by the source, chain 1 of 2) above
Sequence of Ile83Glu memAb anti-HER2 IgG (light, as listed by the source, chain 2 of 2): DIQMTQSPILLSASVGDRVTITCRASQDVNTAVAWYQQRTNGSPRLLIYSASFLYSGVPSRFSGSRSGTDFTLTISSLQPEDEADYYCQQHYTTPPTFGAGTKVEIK
Sequence of Ile83Glu anti-HER2 memAb (heavy, as listed by the source, chain 1 of 2): as the sequence (heavy, as listed by the source, chain 1 of 2) above
Sequence of anti-HER2 memAb (trastuzumab-based, meditope-enabled anti-HER2 antibody) (heavy, as listed by the source, chain 1 of 2): as above

Row | Binder | Kd [4] [nM] | koff [4] [s⁻¹] | kon [4] [M⁻¹ s⁻¹] | koff [5] [s⁻¹] | kon [5] [M⁻¹ s⁻¹] | koff [6] [s⁻¹] | kon [6] [M⁻¹ s⁻¹] | koff [7] [s⁻¹] | kon [7] [M⁻¹ s⁻¹] | other results
1 | CQFDLSTRRLKC (disulfide 1-12 (inferred)) [original meditope (…)] | – | – | – | – | – | – | – | – | – | Kd [1]: 1200 nM; Kd [2]: 1000 nM; half-life [2]: 0.267 min; Kd (Ile83Glu anti-HER2 memAb [3]): 23 nM
2 | CQFDLSTRRLKC (disulfide 1-12) [original meditope …] | 20 | 0.0025 | 260000 | 0.016 | 13000 | 0.044 | 44000 | 0.00059 | 26000 | –
3 | B1 | – | – | – | – | – | – | – | – | – | koff [8]: 0.00014 s⁻¹; kon [8]: 66000 M⁻¹ s⁻¹
4 | Ac-CQFDLSTRRLRCGGSK (disulfide 1-12 (inferred)) [long meditope (Ac)…] | 4 | 0.00063 | 160000 | 0.006 | 28000 | 0.026 | 75000 | 0.00031 | 710000 | Kd [5]: 210 nM; Kd [6]: 350 nM; Kd [7]: 0.44 nM
5 | Ac-CQFD[Dip]STRRLRCGGSK (disulfide 1-12 (inferred)) [5-diphenylalanine long meditope ((Ac)CQFDA(Ph)2…)] | – | – | – | – | – | – | – | – | – | Kd (Ile83Glu anti-HER2 memAb [9]): < 0.026 nM; koff (Ile83Glu anti-HER2 memAb [9]): < 1e-05 s⁻¹; Kd (Ile83Glu anti-HER2 memAb [10]): 0.4 nM; half-life (Ile83Glu anti-HER2 memAb [10]): 40 min
